The record followed here is patent US20200399314A1 (MEDIKINE, published 2020).

Bridge positions count the residues as written; N and C are the ends. Ends that are not written are not given here.

The labels stand for the following.
B1: SEQ ID NO 304 (peptide)
peptide: LSVCSCPPGQLYCMVE
modifications: disulfide (positions not given here); also: disulfide between two of the three Cys, which not given here

For this test, the target named is T1, human IL-2Rα subunit (human, UniProt P01589 22-213, limits assumed).
T1 construct: also called CD25
T1 sequence (looked up): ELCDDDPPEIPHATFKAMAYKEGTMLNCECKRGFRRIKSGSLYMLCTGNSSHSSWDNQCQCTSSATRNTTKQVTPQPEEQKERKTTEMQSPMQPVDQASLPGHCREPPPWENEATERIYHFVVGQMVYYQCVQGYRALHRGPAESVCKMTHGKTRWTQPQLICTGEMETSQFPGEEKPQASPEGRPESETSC
Turning to LRCRLDTRDGTCRF [SEQ ID NO 75], the half-inhibitory concentration (IC50) is less than 100 µM.

Turning to IKCRVLEAGTPCVF (disulfide 3-12 (inferred)) [SEQ ID NO 73], the concentration for half-maximal inhibition (IC50) was less than 100 µM.

Turning to WVICSALGCKAW [SEQ ID NO 36], the IC50 was less than 100 µM.

Regarding FLHWPVYFCQVM [SEQ ID NO 4], the IC50 was less than 100 µM.

Molecule RRFCLRSEPAACWFV [SEQ ID NO 67] gave a concentration for half-maximal inhibition (IC50) of less than 100 µM.

In turn, RVYCLASEPNSCWST [SEQ ID NO 52] showed a 50% inhibitory concentration (IC50) of less than 100 µM.

Turning to YVLCSNRNGCRP [SEQ ID NO 41], the IC50 is less than 100 µM.

Take KLFCLRSGDRACWVV (disulfide 4-12 (inferred)) [SEQ ID NO 60]: the IC50 was less than 100 µM.

WAYDWSCFRRRL [SEQ ID NO 3]: the half-maximal inhibitory concentration (IC50) is less than 100 µM.

Molecule MRCILSPSREHCLF [SEQ ID NO 76] showed a 50% inhibitory concentration (IC50) of less than 100 µM.

B1: the IC50 is less than 100 µM.

As to YVTCRWGYGCTR [SEQ ID NO 42], the 50% inhibitory concentration (IC50) was less than 100 µM.

Regarding RSCNRYGIWGHCDT [SEQ ID NO 72], the IC50 is less than 100 µM.

In turn, WVACSWDHGCRS (disulfide 4-10 (inferred)) [SEQ ID NO 43] showed an IC50 of less than 100 µM.

NHCTMDWRLGACIF [SEQ ID NO 77] returned a 50% inhibitory concentration (IC50) of less than 100 µM.

In the case of STWCCLHPGVGECQAV [SEQ ID NO 305], the IC50 was less than 100 µM.

Consider SGCRLSLLDGHCYF [SEQ ID NO 78], for which the IC50 is less than 100 µM.

In turn, EQFCLVSDPMACWSL (disulfide 4-12 (inferred)) [SEQ ID NO 50] yielded an IC50 of less than 100 µM.

For the molecule FLPWPVYFSQVL [SEQ ID NO 5], the IC50 was less than 100 µM.

For TKLCLKSEPQACWSM [SEQ ID NO 53], the IC50 was less than 100 µM.

Regarding IRCRYEKQSGICLF [SEQ ID NO 74], the IC50 is less than 100 µM.

Regarding VTQCFDGPGSFRCCYQ [SEQ ID NO 306], the 50% inhibitory concentration (IC50) is less than 100 µM.

For the molecule KYWCLRSEPDACFAT (disulfide 4-12 (inferred)) [SEQ ID NO 51], the IC50 is less than 100 µM.

In turn, HVICSVNGGCRG [SEQ ID NO 44] returned a 50% inhibitory concentration (IC50) of less than 100 µM.

Molecule RQCNCLSPGELVNCQQ [SEQ ID NO 307] yielded an IC50 of less than 100 µM.

Usually IC50 stands for the concentration that inhibits the measured activity by half. Low values mean greater potency, high ones weaker potency.
